Ends that are not written are not given here. * marks the point of attachment. FITC = O=C1OC2(c3ccc(O)cc3Oc3cc(O)ccc32)c2ccc(NC(=S)*)cc21; Acp = not defined here
Columns and labels:
HSC-T6 cells [1] = experiment: Lactate dehydrogenase leakage assay; type: cell-based, rat; settings: HSC-T6, 2.5-10 µM, 1 h, 0.1% TritonX-100 positive control, n = 3, p > 0.05 vs NC
Method: (§1) Lactate dehydrogenase (LDH) assay was conducted to measure the release of lactate dehydrogenase from damaged cells. Cells were seeded at a density of 1.5 × 10^5 cells/well to 24-well plates for overnight culture and peptides at indicated concentrations were added as described above. After 1 h incubation, 50 μL of cell-free supernatant were collected and added to each well, including controls and cell-free wells filled with 50 μL of LDH assay buffer. Reaction was conducted at room temperature (RT) for 10 min according to the manufacturer’s recommendations and the Optical Density (OD) was read in a Multiskan Spectrum (Thermo Fisher Scientific) plate reader at 570 nm.

MCF7 cells [2] = experiment: Lactate dehydrogenase leakage assay; type: cell-based, human; settings: MCF7, different concentrations, 1 h; Supplementary Figure S4A
Method: as §1

MCF7 cells [3] = experiment: MTT cytotoxicity assay; type: cell-based, human; settings: MCF7, range of peptide concentrations, 24 h and 48 h, n = 3, p > 0.05
Method: (§2) HSC-T6 and MCF7 cells were seeded at a density of 8000 cells/well in 96-well culture plates overnight before incubation. The cells were washed with PBS and were treated with Dot1l or Dot1l/pDNA complexes of different concentrations at the indicated times. After rinsing with PBS, 20 μL of 5 mg/mL MTT in PBS solution were added to 80 μL of serum-free media and incubated for 4 h. After that, the culture medium was discarded and 150 μL of dimethyl sulfoxide (DMSO) were added into each well to dissolve the formazan crystals. The absorbance of DMSO-dissolved solution was read in a Multiskan Spectrum (Thermo Fisher Scientific, Waltham, MA, USA) reader at 490 nm.

[4] = Flow cytometry analysis of cell cycle and cell apoptosis; type: cell-based; settings: 10 μM peptide
Method: Cells and Dot1l peptide (10 μM), following the same method as described before, were plated with treatment in a six-well plate format. Cells were then harvested and pelleted in washing steps with PBS three times by centrifuging for 5 min at 1023 rpm. The supernatant was removed, and cells were resuspended in PBS. Cells were then fixed in 70% cold ethanol in PBS for 30 min. After washing three times with PBS, the fixed cells were stained with 0.5 mL PI/RNase A solution or with the Annexin-V/PI Apoptosis Detection Kit (Elabscience, Wuhan, China), following the recommended methods. Quantification of cell cycle states or cell apoptosis was acquired by fluorescence of each sample in BD FACSVerse™ flow cytometer.

MCF7 cells [5] = type: cell-based, human
Method: (§3) All types of cells were suspended in 0.5 mL media and seeded at a density of 1.5 × 10^5 cells/well on a 24-well plate for 24 h. After washing with PBS twice, the indicated cells were incubated with indicated concentrations of FITC-CPP-Dot1l, FITC-NCO peptides, or purified protein in 0.5 mL serum-free media/well for 1 h. After incubation, cells were rinsed three times in PBS and then imaged by fluorescence microscopy (Nikon, Tokyo, Japan). To evaluate the cellular uptake efficiency of indicated treatment, the cellular uptake of indicated concentration of CPP was quantified with multimode spectrophotometry (Tecan, Mannedorf, Switzerland). The incubation and wash procedure were the same as above. Cells were then lysed with 0.3 mL/well lysing buffer (0.1 M NaOH) for 10 min and centrifuged at 14,000 rpm for 5 min. The fluorescence intensity in the supernatant was read using Multimode spectrophotometry (Tecan, Mannedorf, Switzerland) at 485 nm excitation and emission at 535 nm. Protein concentration of supernatant was examined by the Bradford protein assay kit following the manufacturer’s recommendation. The fluorescence of cellular uptake is expressed as fluorescence intensity per mg of total cellular protein. Experiments indicated in the text were repeated at least three times.

HSC-T6 cells [6] = experiment: MTT cytotoxicity assay; type: cell-based, rat; settings: HSC-T6, range of peptide concentrations, 24 h and 48 h, n = 3, p > 0.05
Method: as §2

MCF7 cells [7] = experiment: Uptake mechanism: temperature and endocytosis inhibitors; type: cell-based, human
Method: as §3
The uptake mechanism of Dot1l in MCF7 cells was examined through endocytosis inhibitors. Peptide incubation at indicated different temperatures was measured to investigate the influence of temperature on peptide internalization (physical means of inhibition of endocytosis). […] The uptake efficiency was detected using the same protocol as the one shown above.

MCF7 and HSC-T6 cells = experiment: Comparison of penetration efficiency of different CPPs; type: cell-based, human, rat; settings: Supplementary Figure S2D
Method: as §3

[8] = test system: MCF7, B16, HSC-T6, Caski, and HepG2; experiment: Cellular uptake of FITC-labeled Dot1l peptide in different cell lines; type: cell-based, human, mouse, rat
Method: as §3

red blood cells (RBC) = experiment: Hemolysis assay; type: cell-based; settings: 2.5-10 µM, 2 h, absorbance 450 nm, 0.1% Triton X-100 positive control, n = 3, p > 0.05 vs NC
Method: To examine the membrane integrity, red blood cells (RBC) were used to conduct hemolytic analysis. After separation of RBCs by centrifugation for 10 min at 500 rpm, RBCs were collected and carefully washed with PBS. A 20% v/v RBC suspension was used for further experiments. In a typical experiment, 25 μL of RBC suspension were added to 225 μL peptide dilutions at different concentrations. Following 2 h of incubation, samples were centrifuged (500 rpm, 5 min) to discard cells and the membrane fragment. Supernatant samples (50-μL aliquots) were transferred to a clear 96-well plate and hemoglobin absorbance was read at 450 nm. Experimental design contains negative controls and positive controls (RBCs treated with 0.1% Triton X-100).

FITC-(Acp)-KARKKKLNKKGRKMAGRKRGRPKK ({FITC-Acp}-KARKKKLNKKGRKMAGRKRGRPKK; reading uncertain) [Dot1l, FITC-labeled 24-residue arginine-rich cell-penetrating peptide derived from human Dot1l protein]
Membrane disturbance (LDH release) (HSC-T6 cells [1]): no membrane disturbance
Membrane disturbance (LDH release) (MCF7 cells [2]): no membrane disturbance
Inhibition of cell growth (MTT) (MCF7 cells [3]): no significant inhibition
Cell apoptosis, control vs peptide treatment ([4]; Annexin-V/PI): did not show significant differences
Cell cycle, control vs peptide treatment ([4]; PI/RNase A staining): did not show significant differences
Fluorescence signal after trypan blue quenching of cell periphery signal (MCF7 cells [5]): the fluorescence signal persisted
Intracellular fluorescence signal with 5% DMSO pretreatment (MCF7 cells [5]): highly increased
Penetration efficiency with longer incubation time (MCF7 cells [5]): not promoted
Inhibition of cell growth (MTT) (HSC-T6 cells [6]): no significant inhibition
Internalization with wartmannin compared with control (MCF7 cells [7]; MCF7, 5 μM wartmannin (PI-3 kinase blocking agent)): no significant differences
Internalization with sodium azide (MCF7 cells [7]; MCF7, 40 µM sodium azide (oxidative phosphorylation inhibitor)): not blocked
Uptake with heparin (MCF7 cells [7]; MCF7, 50 μg/mL heparin (HSPG competitor)): could not block Dot1l uptake efficiently
Internalization with MβCD compared with control (MCF7 cells [7]; MCF7, 5 mM MβCD (lipid raft-mediated endocytosis inhibitor)): no significant differences
Internalization with ammonium chloride (MCF7 cells [7]; MCF7, 50 mM ammonium chloride (anti-acidification agent of endocytic vesicles)): not blocked
Internalization with hyperosmotic sucrose compared with control (MCF7 cells [7]; MCF7, 450 mM sucrose (clathrin-dependent endocytosis inhibitor)): no significant differences
Fluorescence intensity at 37 °C compared with 4 °C (MCF7 cells [7]; MCF7, means ± SEM (n = 3)): no apparent differences
Fluorescence intensity at 37 °C compared with 25 °C (MCF7 cells [7]; MCF7, means ± SEM (n = 3)): significantly higher
Internalization in the presence of serum containing incubation medium (MCF7 cells [7]; MCF7, serum (10% FBS)): blocked
Penetration efficiency compared with other CPPs (MCF7 and HSC-T6 cells): weaker than hPP10, but significantly higher than that of TAT and MT23
Penetration in different cell lines after 5% DMSO pretreatment ([8]; 5% DMSO pretreatment, Supplementary Figure S1C): significantly increased
Penetration in different cell lines ([8]; MCF7, B16, HSC-T6, Caski, HepG2, non-DMSO pretreatment condition): could penetrate into all different cell lines efficiently without apparent cell line specificity
Membrane disturbance (hemolysis) (red blood cells (RBC)): no membrane disturbance

From article PMC7072583, “Intracellular Delivery of DNA and Protein by a Novel Cell-Permeable Peptide Derived from DOT1L” (Biomolecules, 2020)
